The target of assay [1] is recombinant (β15–66)2 fragment. As to the kind of experiment: ELISA. (In general: An ELISA detects its analyte on a solid surface through an enzyme-linked reagent.)
For assay [2], the target named is recombinant (β15–66)2 fragment. The assay is described as follows: ELISA. The source holds these as a separate data set.
Assay [3] has as its target recombinant (β15–66)2 fragment. The assay is described as follows: ELISA. The source holds these as a separate data set.
Assay [4] deals with VLDLR(1–8)HT (human) (UniProt P98155). The assay is described as follows: SPR. On the technique in general: Surface plasmon resonance follows binding to a sensor surface in real time, without labels.
Assay [5] concerns the target VLDLR(2–4)HT (human) (UniProt P98155). The assay is described as follows: SPR.
For assay [6], the target named is VLDLR(2–3)HT (human) (UniProt P98155). As to the kind of experiment: SPR.
The target of assay [7] is VLDLR(1–4)HT (human) (UniProt P98155). As to the kind of experiment: SPR.
In assay [8] the target is fibrin (β15-66)2 fragment 15-66 (Homo sapiens) (UniProt P02675). As to the kind of experiment: ELISA. Conditions: cited from earlier work.
Sequence of UniProt P02675 (P02675 15-66): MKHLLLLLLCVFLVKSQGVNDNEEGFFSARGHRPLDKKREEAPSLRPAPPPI

The values that follow come from PMC4818545.

Where two headings read alike, the source gives them in different places.

One may read the Kd as the free concentration of one partner at which half of the binding sites on the other are occupied at equilibrium, for simple one-to-one binding.

With “VLDLR(1–4)HT (from UniProt P98155 28-190) (domain or fragment)”, in assay [1], the Kd was 60 nM.

As for “VLDLR(1–8)HT (from UniProt P98155 28-355) (domain or fragment)”, the Kd in assay [2] worked out at 3.4 nM; in assay [3], 21 nM; in assay [1] it was 16.3 nM.

As for “VLDLR(2–3)HT (from UniProt P98155 69-151) (domain or fragment)”, the Kd in assay [1] came out at 78 nM.

Take “recombinant (β15–66)2 fragment (domain or fragment)”: the Kd in assay [4] was determined as 3.1 nM; in assay [5], 4.6 nM; in assay [6], 9.5 nM; in assay [7] it was 3.7 nM.

On to sVLDLR ECD (from UniProt P98155), for which, in assay [8], the Kd was 5.7 nM.

Regarding “soluble form of human VLDL receptor, sVLDLRHT (from UniProt P98155 28-797)”, the results for the Kd in assay [2] and in assay [1] were 2.5 nM and 16.4 nM, respectively.
